The subject of data set [1] is T1, VEGF (vascular endothelial growth factor), P15692-4.
T1 sequence: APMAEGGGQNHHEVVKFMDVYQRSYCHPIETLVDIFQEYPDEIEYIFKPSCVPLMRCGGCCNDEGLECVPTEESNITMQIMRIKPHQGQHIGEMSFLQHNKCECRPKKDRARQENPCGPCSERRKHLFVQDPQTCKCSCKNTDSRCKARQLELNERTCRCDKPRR
As to the kind of experiment: filter. As to conditions: 50% of RNA bound, PBS.

The test system is the same in data set [2]. As to conditions: CITED Jellinek et al 1994, cited from earlier work.

The values below come from patent US20020051974.

Read-outs that look alike come from different tables or passages of the source.

“GGGAAUGGAUCCACAUCUACGAAUUCUUUGAAGAGGGUCAAUCCGCGCACGUUACGUUCACUGCAGACUUGACGAAGCUU [V03]”: in data set [1] (1 mM MgCl2, room temperature), the EC50 worked out at 32.6 nM. Take “GGGAAUGGAUCCACAUCUACGAAUUCCGCGCACGUAGGUUGGGUGUAACUGCGUUGUUCACUGCAGACUUGACGAAGCUU [V05]”: in data set [1] (1 mM MgCl2, room temperature), the EC50 stood at 15.3 nM.

On to “GGGAAUGGAUCCACAUCUACGAAUUCCGCGCACGUCACGGGCCGACACGAAUAUGGUUCACUGCAGACUUGACGAAGCUU [V10]”, for which the EC50 in data set [1] (1 mM MgCl2, room temperature) was found to be 31.4 nM. Still for that read-out and setting: for “GGGAAUGGAUCCACAUCUACGAAUUCGAGGGUCCGUCUGCCGAGUCUUGUAACACCUUCACUGCAGACUUGACGAAGCUU [V02]” the value was 21.3 nM; for “GGGAAUGGAUCCACAUCUACGAAUUCAGGUGGAAAGCAAGUUCCGCGCACGUUAAUUUCACUGCAGACUUGACGAAGCUU [V08]”, 14.4 nM. In data set [1] (1 mM MgCl2, sequence contains N), “GGGAAUGGAUCCACAUCUACGAAUUCCGCGCGCGCUAACCUUGNGGNGNAAGUAUGUUCACUGCAGACUUGACGAAGCUU [V13]” showed an EC50 of 8.32 nM. In data set [1] (1 mM MgCl2, room temperature), “GGGAAUGGAUCCACAUCUACGAAUUCGGAUAUUCCGCGCACGUCAUUUCAUCAGCUUUCACUGCAGACUUGACGAAGCUU [V19]” yielded an EC50 of 7.61 nM. In data set [1] (1 mM MgCl2, text gives 8.5), “GGGAAUGGAUCCACAUCUACGAAUUCUGUAAGAUUGGUCUCCAGACUGCCGAGCUGUUCACUGCAGACUUGACGAAGCUU [V18]” yielded an EC50 of 8.52 nM. Take “GGGAGCUCAGAAUAAACGCUCAAACGGUUCUGUGUGUGGACUAGCCGCGGCCGUUCGACAUGAGGCCCGGAUCCGGC [VEGF126 (RNA transcript of printed DNA)]”: in data set [2] (unit not repeated for this value), the Kd is 0.14 nM. The EC50 in data set [1] (1 mM MgCl2, room temperature) was found to be 19.9 nM.

On to “GGGAAUGGAUCCACAUCUACGAAUUCCGUUCUGCCGAGACUGCACGUGUGCUUGAAUUCACUGCAGACUUGACGAAGCUU [V09]”, for which the EC50 in data set [1] (1 mM MgCl2, room temperature) worked out at 24.2 nM. With “GGGAGCUCAGAAUAAACGCUCAAGACCCAUCGUCAACGGUUGAGUCUGUCCCGUUCGACAUGAGGCCCGGAUCCGGC [VEGF40 (RNA transcript of printed DNA)]”, in data set [2], the dissociation constant (Kd) was 0.19 nM. In data set [1] (1 mM MgCl2, room temperature), this sequence came in with an EC50 of 4.15 nM.

For “GGGAAUGGAUCCACAUCUACGAAUUCGGGAACAGCUCUAUUCCGCGCACGUUUGAGUUCACUGCAGACUUGACGAAGCUU [V04]”, the EC50 in data set [1] (1 mM MgCl2, room temperature) was found to be 4.52 nM. “GGGAAUGGAUCCACAUCUACGAAUUCCGCGCACGUAGGUUGGGUGUAACUGCGUUGUUCACUGCAGACUUGACGAAGCUU [V06]” had an EC50 in data set [1] (1 mM MgCl2, printed sequence identical to V05) of 36.9 nM.

On to “GGGAAUGGAUCCACAUCUACGAAUUCAGGCAGCGUAGAGGGUUCACUCUGCCGAGUUUCACUGCAGACUUGACGAAGCUU [V01]”, for which the EC50 in data set [1] (1 mM MgCl2, room temperature) came out at 19 nM.

For the sequence “GGGAAUGGAUCCACAUCUACGAAUUCGAUGGCGUUAGUGGGAAUGAUUCUGCCGAGUUCACUGCAGACUUGACGAAGCUU [V07]”, the EC50 in data set [1] (1 mM MgCl2, room temperature) was found to be 17.3 nM.

Usually EC50 stands for the concentration that produces a half-maximal response. A high value points to a need for much substance. By Kd is commonly meant the concentration at which binding is half-saturated.
